The target in the test is SARS-CoV-2 ORF6 C3 + YP (SARS-CoV-2 | SARS-CoV). Nature of the test: ITC. The conditions noted are these: both partners purified.
SARS-CoV-2 ORF6 C3 + YP (SARS-CoV-2 | SARS-CoV), sequence (P52948 157-213): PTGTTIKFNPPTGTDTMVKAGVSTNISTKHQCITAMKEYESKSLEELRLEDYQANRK

B1: Rae1(31-368)-Nup98(157-213) heterodimer (complex)
chain 1: DIEVTSSPDDSIGCLSFSPPTLPGNFLIAGSWANDVRCWEVQDSGQTIPKAQQMHTGPVLDVCWSDDGSKVFTASCDKTAKMWDLSSNQAIQIAQHDAPVKTIHWIKAPNYSCVMTGSWDKTLKFWDTRSSNPMMVLQLPERCYCADVIYPMAVVATAERGLIVYQLENQPSEFRRIESPLKHQHRCVAIFKDKQNKPTGFALGSIEGRVAIHYINPPNPAKDNFTFKCHRSNGTNTSAPQDIYAVNGIAFHPVHGTLATVGSDGRFSFWDKDARTKLKTSEQLDQPISACCFNHNGNIFAYASSYDWSKGHEFYNPQKKNYIFLRNAAEELKPRNKK
chain 2: not shown
notes: also called Rae1-Nup98; Rae1-Nup98 complex
The term Kd denotes the concentration at which binding is half-saturated. For the molecule B1, the Kd amounted to 200 nM.

Values taken from PMC9376891 (Nature Communications, 2022).
